Data from publication PMC3434800.
Positions count from the first letter of the chain named.

T1: Hel308 (ssHel308) wild type (Sulfolobus solfataricus PBL2025, UniProt D0KN27 8-715)
T1 sequence: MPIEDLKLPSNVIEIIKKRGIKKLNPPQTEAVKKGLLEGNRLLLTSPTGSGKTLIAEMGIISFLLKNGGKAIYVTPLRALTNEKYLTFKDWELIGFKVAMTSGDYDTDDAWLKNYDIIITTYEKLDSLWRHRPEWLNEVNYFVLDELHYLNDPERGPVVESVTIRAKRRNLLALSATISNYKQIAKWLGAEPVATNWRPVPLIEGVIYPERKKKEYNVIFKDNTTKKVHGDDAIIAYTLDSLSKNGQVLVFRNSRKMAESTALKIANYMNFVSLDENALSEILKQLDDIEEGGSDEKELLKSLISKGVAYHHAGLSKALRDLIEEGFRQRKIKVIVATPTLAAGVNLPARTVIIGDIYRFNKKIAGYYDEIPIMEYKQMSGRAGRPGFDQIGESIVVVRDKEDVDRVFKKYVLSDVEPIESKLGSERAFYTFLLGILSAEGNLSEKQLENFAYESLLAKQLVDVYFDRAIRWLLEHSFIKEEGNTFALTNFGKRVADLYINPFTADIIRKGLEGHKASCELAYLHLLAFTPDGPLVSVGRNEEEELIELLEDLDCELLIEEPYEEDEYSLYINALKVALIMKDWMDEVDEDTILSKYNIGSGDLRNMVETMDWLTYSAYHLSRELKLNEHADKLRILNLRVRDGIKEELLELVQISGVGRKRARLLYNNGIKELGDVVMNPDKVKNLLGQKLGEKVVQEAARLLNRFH

T2: Hel308 R255A (Sulfolobus solfataricus PBL2025, UniProt D0KN27 8-715, R262A)
T2 sequence: T1 sequence with R255A

T3: Hel308 K52A (Sulfolobus solfataricus PBL2025, UniProt D0KN27 8-715, K59A)
T3 sequence: T1 sequence with K52A

T4: Hel308 R662A (Sulfolobus solfataricus PBL2025, UniProt D0KN27 8-715, R669A)
T4 sequence: T1 sequence with R662A

B1: 15T/15A duplex, 5'-fluorescein on 15T (dsDNA)
DNA 1: TTTTTTTTTTTTTTT
DNA 2: AAAAAAAAAAAAAAA

Columns and labels:
[1] = molecular target: T1, Hel308 (ssHel308) wild type; assay: competition
[2] = molecular target: T1, Hel308 (ssHel308) wild type; assay: fluorescence anisotropy
Hel308 R255A = molecular target: T2, Hel308 R255A; assay: fluorescence anisotropy
Hel308 K52A = molecular target: T3, Hel308 K52A; assay: fluorescence anisotropy
Hel308 R662A = molecular target: T4, Hel308 R662A; assay: fluorescence anisotropy

| Binder | Kd [1] [nM] | Kd [2] [nM] | binding signal (Hel308 R255A) | binding result (Hel308 K52A) | binding result (Hel308 R662A) |
| --- | --- | --- | --- | --- | --- |
| TTTTTTTTTTTTTTT (ssDNA) [15T ssDNA, unlabelled competitor] | 130 | – | – | – | – |
| B1 | – | 5300 | – | – | – |
| TTTTTTTTTTTTTTT (ssDNA) [15T ssDNA, 5'-fluorescein] | – | 140 | 25 fold increase in Kd vs wild type | binds | binds |
